Assay results reported in patent US10597674B2, “HPPD variants and methods of use” (BASF Agricultural Solutions Seed, US LLC, priority 2015, dated 2020).

Columns and labels:
soybean shoots = experiment: Soybean transformation, selection of shoots with tembotrione; format: in vivo; conditions: wild-type soybean shoots treated with selection marker
Description: Soybean transformation was achieved by using methods well known in the art, such as the one described using the Agrobacterium tumefaciens mediated transformation soybean half-seed explants using essentially the method described by Paz et al. (2006), Plant cell Rep. 25:206. Transformants were identified by using the HPPD inhibitor herbicide “tembotrione” as selection marker. The appearance of green shoots was observed, and documented as an indicator of tolerance to the HPPD inhibitor herbicide tembotrione.

[1] = target: HPPD polypeptides (wild-type SEQ ID NO:1 and mutants) (Pseudomonas sp., UniProt P80064, A172V/A339V/A53E/D148E/D45N/E105D/E287Q/E300V/E334P/F143Y/G286D/G335H/H150N/H254A/H63N/I158V/I187A/I249V/I344V/K92N/L18F/N24G/N280D/N336S/P267G/S245T/S257K/S301E/T205S/T269E/V65I); conditions: compared with SEQ ID NO: 24; Table 3a and 3c
[2] = tested on: E. coli cells expressing an HPPD polypeptide; experiment: Brown Color Assay on solid LB-agar, visual score of brown pigment; format: cell-based; conditions: 25, 50, 100, 250 and 500 μM Cmpd. 1
Method in brief: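 E. coli expressing mutant HPPD, diluted to OD600 1, spotted in triplicate on LB-agar with 5 mM tyrosine, 42 mM succinate and 0, 25, 50, 100, 250 or 500 μM Cmpd. 1. Incubated 24 h at 30 °C, then kept dark at room temperature. Brown pigment scored visually at 7 days as ++, + or 0.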

[3] = target: HPPD polypeptides (wild-type SEQ ID NO:1 and mutants) (Pseudomonas sp., UniProt P80064, A172V/A339V/A53E/D148E/D329H/D45N/E105D/E287Q/E300V/E334P/F143Y/G286D/G335D/H150N/H254A/H63N/I158V/I187A/I249V/K92N/L18F/M263R/N24G/N280D/N336S/S245T/S257K/S301E/T205S/V65I); conditions: compared with SEQ ID NO:12; Tables 3a, 3b
[4] = tested on: transgenic T1 soybean events; experiment: Field trials of T1 soybean events, leaf damage eight days after application; format: in vivo
Experimental: Soybean plants expressing an HPPD inhibitor tolerant polypeptide of the present invention alone, or along with a gene conferring tolerance to glyphosate and/or a gene conferring tolerance to glufosinate or having a “plant expression cassette”, which includes only an HPPD inhibitor tolerant polypeptide of the present invention, were tested for tolerance to different HPPD inhibitor herbicide chemical classes. The transgenic plants were routinely analyzed for the expression and presence of the transgenes using the ELISA protein detection method (see detailed description under item D and H). Only plants recovering in the selection media and having a detectable HPPD transgene protein expression were regenerated, transferred to the greenhouse and used at V2-V4 growth stage for the HPPD inhibitor herbicide tolerance analysis of the T0 soybean events in the greenhouse (Example 6). The chemical formulation with HPPD inhibitor herbicides was supplemented with ammonium sulfate and methyl ester rapeseed oil. Herbicide tolerance evaluation was taken 5-21 days after spraying. The best performing independent T0 soybean events were selfed to produce T1 soybean seeds. In the field trails, the advanced T1 soybean seeds were planted and treated with either 210 g/ha of isoxaflutole or 150 g/ha of Cmpd.
In Table 10, the frequency of the soybean events showing a good tolerance, i.e. equal or less than 15% damage of the total leaf area are summarized

[5] = target: HPPD polypeptides (wild-type SEQ ID NO:1 and mutants) (Pseudomonas sp., UniProt P80064, A172V/A339V/A53E/D148E/D329H/D45N/E105D/E287Q/E300V/E334P/F143Y/G286D/G335D/H150N/H254A/H63N/I158V/I187A/I249V/I344V/K92N/L18F/M263R/N24G/N280D/N336S/P267G/S245T/S257K/S301E/T205S/T269E/V65I); conditions: 15 μM Cmpd. 1, high substrate concentration (Table 3a)
[6] = tested on: HPPD polypeptides (purified, wild-type SEQ ID NO:1 and mutants); experiment: Coupled HPPD activity assay: ki determination, competitive inhibition fit; format: biochemical, Pseudomonas fluorescens; conditions: inhibitor Cmpd. 1
Experimental: For the generation of purified HPPD polypeptide samples, cells were grown for 3 h at 37° C. in 5 ml LB medium containing 100 μg/ml ampicillin in a 50 ml shaker flask at 140 rpm. One ml of this starter culture was used as inoculum for the expression culture. […] At an OD600 of about 0.6, IPTG (Roth, Karlsruhe, Germany) was added to a concentration of 0.4 mM. After further growth for 60 min at 37° C., the temperature was reduced to 28° C. and growth continued for another 18 h at 140 rpm. Cells were harvested by centrifugation at 4° C., 3200 g for 30 min in 50 ml Falcon tubes and cell pellets were stored at −80° C. […]
The resulting protein samples were re-buffered into 20 mM Tris, 20% Glycerol (pH 7.8) (Sigma-Aldrich, St. Louis, USA) by use of Zeba™ Spin Desalting Columns, 7K MWCO, 10 mL (Thermo Fisher Scientific, Waltham, USA) and analysed for protein concentration and purity by Abs280 (NANODROP 8000, Thermo Fisher Scientific, Waltham, USA) and SDS-PAGE. […]
The mutant HPPD polypeptides represented here are examples by a way of illustration, not by a way of limitation. […] The inhibitor concentrations were adopted for the respective HPPD polypeptide/inhibitor pairs to generate dynamic data, i.e. variants with lower tolerance were analyzed in a range of lower inhibitor concentrations, and concentrations of up to 1200 μM were used for variants with maximized tolerance. […]

[7] = target: HPPD polypeptides (wild-type SEQ ID NO:1 and mutants) (Pseudomonas sp., UniProt P80064, A172V/A339V/A53E/D148E/D45N/E105D/E287Q/E300V/E334P/F143Y/G286D/G335D/H150N/H254A/H63N/I158V/I187A/I249V/I344V/K92N/L18F/N24G/N280D/N336S/P267G/S245T/S257K/S301E/T205S/T269E/V65I); conditions: 50 μM Cmpd. 1, low substrate concentration
[8] = tested on: HPPD polypeptides (wild-type SEQ ID NO:1 and mutants); conditions: 50 μM Cmpd. 1, low substrate concentration (Table 5)
[9] = 150 g/ha Cmpd. 1, stage V2-V4, eight days after application
[10] = 210 g/ha isoxaflutole, stage V2-V4, eight days after application

Molecule: CS(=O)(=O)c1ccc(C(=O)C2C(=O)CCCC2=O)c(Cl)c1COCC(F)(F)F [tembotrione, 2-[2-chloro-4-(methylsulfonyl)-3-[(2,2,2,-trifluoroethoxy)methyl]benzoyl]-1,3-cyclohexanedione]
- appearance of shoots (soybean shoots): entirely bleached

B1: SEQ ID NO:31 (protein)
chain: MADLYENPMGLMGFEFIEFASPTPGTLEPIFEIMGFTKVATHRSKNVHLYRQGEINLILNNEPNSIASYFAAEHGPSVCGMAFRVKDSQKAYNRALELGAQPIHIDTGPMELNLPAIKGIGGAPLYLIDRFGEGSSIYDIDFVYLEGVERNPVGAGLKVIDHLTHNVYRGRMVYWANFYEKLFNFREARYFDIKGEYTGLTSKAMSAPDGMIRIPLNEESSKGAGQIEEFLMQFNGEGIQHVAFLTDDLVKTWDALKKIGMRFMTAPGDEYYEMLEGRLPDHGEPVDQLQARGILLDGSSVEGDKRLLLQIFSETLMGPVFFEFIQRKGDDGFGPHSFKVLFESVERDQVRRGVLTAD
modifications: mutant HPPD polypeptide
- residual turnover in the presence of Cmpd. 1 and MST, in words [1]: increase significantly
- brown coloring compared with SEQ ID NO: 2, in words [2]: stronger brown coloring

B2: SEQ ID NO: 18: mutant HPPD polypeptide: M264R D330H E335P G336D N337S A340V (protein)
chain: MADLYENPMGLMGFEFIEFASPTPGTLEPIFEIMGFTKVATHRSKNVHLYRQGEINLILNNEPNSIASYFAAEHGPSVCGMAFRVKDSQKAYNRALELGAQPIHIDTGPMELNLPAIKGIGGAPLYLIDRFGEGSSIYDIDFVYLEGVERNPVGAGLKVIDHLTHNVYRGRMVYWANFYEKLFNFREARYFDIKGEYTGLTSKAMSAPDGMIRIPLNEESSKGAGQIEEFLMQFNGEGIQHVAFLTDDLVKTWDALKKIGMRFRTAPPDTYYEMLEGRLPDHGEPVDQLQARGILLDGSSVEGDKRLLLQIFSETLMGPVFFEFIQRKGHDGFGPDSFKVLFESIERDQVRRGVLTAD
modifications: mutant HPPD polypeptide
notes: mutant HPPD polypeptide: M264R D330H E335P G336D N337S A340V
- HPPD inhibitor tolerance towards Cmpd. 1 and Cmpd. 2, in words [3]: further significant improved
- Frequency in the population (events with ≤15% leaf damage) [4, 9]: 60%
- Independent events with ≤15% leaf damage after spray [4, 9]: 12
- Frequency in the population (events with ≤15% leaf damage) [4, 10]: 60%
- Independent events with ≤15% leaf damage after spray [4, 10]: 12

B3: SEQ ID NO:19 (protein)
chain: MADLYENPMGLMGFEFIEFASPTPGTLEPIFEIMGFTKVATHRSKNVHLYRQGEINLILNNEPNSIASYFAAEHGPSVCGMAFRVKDSQKAYNRALELGAQPIHIDTGPMELNLPAIKGIGGAPLYLIDRFGEGSSIYDIDFVYLEGVERNPVGAGLKVIDHLTHNVYRGRMVYWANFYEKLFNFREARYFDIKGEYTGLTSKAMSAPDGMIRIPLNEESSKGAGQIEEFLMQFNGEGIQHVAFLTDDLVKTWDALKKIGMRFRTAPGDEYYEMLEGRLPDHGEPVDQLQARGILLDGSSVEGDKRLLLQIFSETLMGPVFFEFIQRKGHDGFGPDSFKVLFESVERDQVRRGVLTAD
modifications: mutant HPPD polypeptide
- Residual activity [5]: 68%
- Residual turnover [5]: 79%
- increase of ki towards Cmpd. 1 compared to SEQ ID NO:2 [6]: ~30 fold

B4: SEQ ID NO:17 (protein)
chain: MADLYENPMGLMGFEFIEFASPTPGTLEPIFEIMGFTKVATHRSKNVHLYRQGEINLILNNEPNSIASYFAAEHGPSVCGMAFRVKDSQKAYNRALELGAQPIHIDTGPMELNLPAIKGIGGAPLYLIDRFGEGSSIYDIDFVYLEGVERNPVGAGLKVIDHLTHNVYRGRMVYWANFYEKLFNFREARYFDIKGEYTGLTSKAMSAPDGMIRIPLNEESSKGAGQIEEFLMQFNGEGIQHVAFLTDDLVKTWDALKKIGMRFMTAPGDEYYEMLEGRLPDHGEPVDQLQARGILLDGSSVEGDKRLLLQIFSETLMGPVFFEFIQRKGDDGFGPDSFKVLFESVERDQVRRGVLTAD
modifications: mutant HPPD polypeptide
- reduction of substrate turnover [7]: 46%
- Residual activity [8]: 29%
- increase of ki towards Cmpd. 1 compared to SEQ ID NO:2 [6]: ~20 fold
